Results published in publication PMC6557629.

Target: Recombinant murine serum amyloid A isoform 1.1 (murine)
Experiment: cross-linking; SAA-POPC complexes hydrolyzed by sPLA2-III (0.5 mg/ml protein) with glutaraldehyde 0.01-0.08%, 30 min at 24°C, 50 mM sodium phosphate, 150 mM NaCl, pH 7.5; quenched with 100 mM Tris; SDS PAGE

- stoichiometry N: 6
Substance: Recombinant murine serum amyloid A isoform 1.1 (natural protein)
